In series [1] the target is T1, QK RNA-binding domain (recombinant, purified) (UniProt Q9QYS9 1-213).
T1 sequence: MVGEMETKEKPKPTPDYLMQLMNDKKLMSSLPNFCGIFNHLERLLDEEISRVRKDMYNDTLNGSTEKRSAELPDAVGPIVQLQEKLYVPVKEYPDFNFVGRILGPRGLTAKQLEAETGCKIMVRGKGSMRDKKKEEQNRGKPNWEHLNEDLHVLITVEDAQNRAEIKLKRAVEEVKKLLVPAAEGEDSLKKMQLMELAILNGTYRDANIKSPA
Put plainly: competition; competes with Mbp QSBE; Kc,app value only in figure; EMSA on non-denaturing 5% polyacrylamide slab gel in 1x TBE; binding buffer, salt, pH and temperature not printed (per ref 64).

Series [2] has as its target T1, QK RNA-binding domain (recombinant, …). The series can be described thus: EMSA and fluorescence polarization; apparent Kd; EMSA on non-denaturing 5% polyacrylamide slab gel in 1x TBE; binding buffer, salt, pH and temperature not printed (per ref 64). (Mobility shift assays separate free from complexed probe on a gel.)
For series [3] the target is unchanged. Put plainly: EMSA; three fragments; does not bind with high affinity; EMSA on non-denaturing 5% polyacrylamide slab gel in 1x TBE; binding buffer, salt, pH and temperature not printed (per ref 64).

On to UGUGACUAAUUG (ssRNA) [Hnrnpa1 12-nt RNA competitor], for which the binding result in series [1] is on record as “binds”.

With AACUCCAGGACUGUAUUUGUGACUAAUUGU (ssRNA) [Hnrnpa1 3' UTR QSBE WT, 30 nt], the Kd in series [2] was 36 ± 2 nM.

For the molecule GCUCAUUCUUUGGAGCGGGUGUGUCAUU (ssRNA) [Plp1 ESE fragments (three overlapping)], the binding result in series [3] was “no binding”.

Turning to CAGUGCCCAUUGGUACACACUAACCUCG (ssRNA) [Mbp QSBE], in series [2], the Kd stood at 44 ± 2 nM.
